In patent US12351605B2, “Optically controllable FGFR stimulation using wireless controlled cellular lighting system” (THE JOHNS HOPKINS UNIVERSITY, priority 2020, dated 2025):
Where two headings read alike, the source gives them in different places.

Tests used:
FGF signaling pathway = experiment: Western blot of ERK1/2 and MEK phosphorylation in Opto-FGFR hESCs; type: cell-based, human; conditions: 10 ng/mL FGF2 after 24 h FGF2 starvation; 15 min intervals up to 120 min
Procedure: Western blot analysis. The phosphorylation status of MEK and ERK1/2 were determined by Western blot analysis. The cells were starved from FGF2 protein for 24 h, and then exposed to either FGF2 protein or blue light illumination. One μg aliquots of whole cell lysates were loaded onto 4-20% gradient SDS-PAGE gels and then transferred to nitrocellulose membranes (Bio-Rad) using the Trans-Blot® Turbo™ Transfer System (Bio-Rad). The detection of phosphorylated ERK1/2 proteins (42 and 44 kDa) was performed using a phospho-ERK1/2 antibody (Cell Signaling), total ERK1/2 expression level was determined using a total […] antibody (Cell Signaling), detection of pMEK protein (45 kDa) was performed using a pMEK1/2 antibody (Cell Signaling), and total MEK expression level was determined using a total MEK1/2 antibody (Cell Signaling). The expression levels are quantified by normalizing to GAPDH expression (Cell Signaling). Following the primary antibody incubation, the membranes were incubated with the appropriate secondary antibodies and subsequently visualized with an ECL kit (Pierce).
Generation of a light-inducible FGF signaling system. […]

[1] = daily feeding condition, cited from earlier work

FGF2: recombinant fibroblast growth factor 2 protein, medium component for maintaining pluripotency of PSCs
activation of FGF signaling (phosphorylation of ERK1/2 and MEK) (FGF signaling pathway): activated FGF signaling | decrease of FGF2 protein concentration ([1]; 4 h after the initial feeding): approximately 40% | decrease of FGF2 protein concentration ([1]; 24 h after the initial feeding): approximately 10%
